According to patent CN117050178A (BEIJING BIOSYSTEMS BIOLOGICAL TECH CO LTD, dated 2023):

Assays:
人源IL-21蛋白 = 人源IL-21蛋白 (human, UniProt Q9HBE4 32-162, limits assumed); experiment: indirect ELISA, cell supernatant on coated cytokine
人源IL-4蛋白 = molecular target: T1, 人源IL-4蛋白 (human, UniProt P05112 25-153); experiment: as above
T1 sequence (looked up): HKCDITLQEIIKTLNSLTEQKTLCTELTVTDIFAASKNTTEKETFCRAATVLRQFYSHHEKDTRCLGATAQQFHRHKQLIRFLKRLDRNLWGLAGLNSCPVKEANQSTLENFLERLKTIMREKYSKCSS

人源IL-2蛋白 = 人源IL-2蛋白 (human, UniProt P60568 21-153); experiment: as above
人源IL-15蛋白 = 人源IL-15蛋白 (human, UniProt P40933 49-162); experiment: as above
人源IL-10蛋白 = 人源IL-10蛋白 (human, UniProt P22301 19-178); experiment: as above
人源IL-6蛋白 = 人源IL-6蛋白 (human, UniProt P05231 30-212); experiment: as above
人源TNF-alpha蛋白 = 人源TNF-alpha蛋白 (human, UniProt P01375 77-233); experiment: as above
人源GM-CSF蛋白 = 人源GM-CSF蛋白 (human, UniProt P04141 18-144); experiment: as above
人IL-7蛋白 = molecular target: T2, 人IL-7蛋白 (human, UniProt P13232 26-177); experiment: indirect ELISA, cell supernatant on coated human IL-7 (2 μg/mL)
T2 construct: also called 人源IL-7
T2 sequence (looked up): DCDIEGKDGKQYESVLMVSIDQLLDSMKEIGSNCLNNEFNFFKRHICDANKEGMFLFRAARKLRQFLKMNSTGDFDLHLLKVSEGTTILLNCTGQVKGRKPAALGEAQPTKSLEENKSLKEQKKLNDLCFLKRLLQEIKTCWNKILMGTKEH

人源IL-10蛋白, sequence (P22301 19-178 limits assumed): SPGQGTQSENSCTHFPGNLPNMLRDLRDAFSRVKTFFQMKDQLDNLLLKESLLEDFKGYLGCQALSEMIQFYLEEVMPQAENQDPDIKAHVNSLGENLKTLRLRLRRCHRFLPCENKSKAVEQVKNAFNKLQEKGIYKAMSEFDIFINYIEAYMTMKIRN
人源TNF-alpha蛋白, sequence (P01375 77-233 limits assumed): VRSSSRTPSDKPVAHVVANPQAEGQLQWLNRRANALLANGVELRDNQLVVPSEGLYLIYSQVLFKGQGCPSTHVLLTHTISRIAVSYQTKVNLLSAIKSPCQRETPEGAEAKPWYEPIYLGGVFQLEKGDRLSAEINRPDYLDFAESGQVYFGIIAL
人源IL-21蛋白, sequence (Q9HBE4 32-162 limits assumed): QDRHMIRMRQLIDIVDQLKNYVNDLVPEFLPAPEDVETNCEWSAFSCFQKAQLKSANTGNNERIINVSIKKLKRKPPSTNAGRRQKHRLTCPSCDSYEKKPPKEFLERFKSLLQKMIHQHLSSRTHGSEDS
人源GM-CSF蛋白, sequence (P04141 18-144 limits assumed): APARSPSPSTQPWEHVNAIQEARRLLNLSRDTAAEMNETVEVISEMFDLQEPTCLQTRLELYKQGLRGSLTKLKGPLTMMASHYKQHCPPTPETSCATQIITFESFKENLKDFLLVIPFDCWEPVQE
人源IL-15蛋白, sequence (P40933 49-162 limits assumed): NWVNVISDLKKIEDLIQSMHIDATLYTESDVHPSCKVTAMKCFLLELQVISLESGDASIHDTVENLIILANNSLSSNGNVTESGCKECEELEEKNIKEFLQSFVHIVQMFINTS
人源IL-2蛋白, sequence (P60568 21-153 limits assumed): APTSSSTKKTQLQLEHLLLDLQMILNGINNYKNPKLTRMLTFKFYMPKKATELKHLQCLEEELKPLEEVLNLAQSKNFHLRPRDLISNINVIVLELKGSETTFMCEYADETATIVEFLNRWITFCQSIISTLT

B1: 抗体8E8B10 (antibody, V domains shown)
VH: QVQLQQPGAELLRPGASVKLSCKTSGFTFTRYWINWVKQRPGQGLEWIGMIDPFDSETHYNQVFKDKATLTVDKSSSTAYMYMSSLTSEDSAVYYCARYFVYFDTVDFWGQGTSLTVSS
VL: DVVMTQTPLSLPVSLGGQASISCRSGQSLVHSDGNTYLHWYLQRPGQSPKLLIYKVSNRFSGVPDRFSGSGSGTNFTLKISRVEAEDLGVYFCSQNTHVPYTFGGGTKLEMK
notes: Mouse hybridoma monoclonal antibody; also called Clone 8E8B10; 克隆号8E8B10
**Q.** Does B1 bind (人源IL-21蛋白)?
**A.** Result: no binding (tested: antigen coated at 2 μg/mL)

**Q.** Does B1 bind (人源IL-4蛋白)?
**A.** Result: no binding (tested: antigen coated at 2 μg/mL)

**Q.** Does B1 bind (人源IL-2蛋白)?
**A.** Result: no binding (tested: antigen coated at 2 μg/mL)

**Q.** Does B1 bind (人源IL-15蛋白)?
**A.** Result: no binding (tested: antigen coated at 2 μg/mL)

**Q.** Does B1 bind (人源IL-10蛋白)?
**A.** Result: no binding (tested: antigen coated at 2 μg/mL)

**Q.** Does B1 bind (人源IL-6蛋白)?
**A.** Result: no binding (tested: antigen coated at 2 μg/mL)

**Q.** Does B1 bind (人源TNF-alpha蛋白)?
**A.** Result: no binding (tested: antigen coated at 2 μg/mL)

**Q.** Does B1 bind (人源GM-CSF蛋白)?
**A.** Result: no binding (tested: antigen coated at 2 μg/mL)

**Q.** Does B1 bind (人IL-7蛋白)?
**A.** Result: binds
